In series [1] the target is EHE chimera (EcSSB with hSSB1 IDL) (Escherichia coli / human (IDL)) (UniProt P0AGE0). In words: fluorescence polarization. The note with it: 20 mM Tris-acetate pH 8, 50 mM K-glutamate, 10 mM Mg-acetate, 25 C, 10 nM labeled oligo, SSB concentrations as tetramers. (Fluorescence polarisation rises when a labelled molecule tumbles more slowly, as on binding a larger partner.)

For series [2], the target named is EPE chimera (EcSSB with PfSSB IDL) (Escherichia coli / Plasmodium falciparum (IDL)) (UniProt P0AGE0). Briefly: fluorescence polarization. Conditions: 20 mM Tris-acetate pH 8, 50 mM K-glutamate, 10 mM Mg-acetate, 25 C; 10 nM labeled oligo, SSB concentrations as tetramers.
The target in series [3] is EcSSB dC (construct lacking the CTP, aa 1-170) (Escherichia coli) (UniProt P0AGE0). In words: fluorescence polarisation; competitive: dC (2.5 uM tetramer) complexed with 25 nM flCTP, titrated with EcSSB constructs (tetramer concentrations); 25°C; 20 mM Tris–acetate pH 8, 50 mM K-glutamate, 10 mM Mg-acetate; competitive binding scheme.
Another series concerns the target RecQ helicase (UniProt P15043). In words: fluorescence polarisation; competitive: RecQ–flCTP mixture (0.65 uM RecQ, 25 nM flCTP) titrated with EcSSB constructs (tetramer concentrations); 25°C; 20 mM Tris–acetate pH 8, 50 mM K-glutamate, 10 mM Mg-acetate; competitive binding scheme.
Series [4] addresses EcSSB W136D W136D (Escherichia coli) (UniProt P0AGE0). In words: fluorescence polarization. The note with it: n = 2; 20 mM Tris-acetate pH 8, 50 mM K-glutamate, 10 mM Mg-acetate, 25 C; 10 nM labeled oligo, SSB concentrations as tetramers.
In series [5] the target is EcSSB d1G internal_change (Escherichia coli) (UniProt P0AGE0). In words: fluorescence polarization. Conditions: n = 1.9 to 2.3 range; here 2.3; 20 mM Tris-acetate pH 8, 50 mM K-glutamate, 10 mM Mg-acetate, 25 C; 10 nM labeled oligo, SSB concentrations as tetramers.
Series [6] addresses EcSSB WT (Escherichia coli) (UniProt P0AGE0). Briefly: fluorescence polarization. Conditions: n = 1.9 tetramer per oligo; 20 mM Tris-acetate pH 8, 50 mM K-glutamate, 10 mM Mg-acetate, 25 C; 10 nM labeled oligo, SSB concentrations as tetramers.
Series [7] addresses EcSSB R116D-W136D R116D;W136D (Escherichia coli) (UniProt P0AGE0). In words: fluorescence polarization. Conditions: n = 2; 20 mM Tris-acetate pH 8, 50 mM K-glutamate, 10 mM Mg-acetate, 25 C; 10 nM labeled oligo, SSB concentrations as tetramers.
Series [8] has as its target EcSSB d2G internal_change (Escherichia coli) (UniProt P0AGE0). Briefly: fluorescence polarization. The note with it: n = 2.8; 20 mM Tris-acetate pH 8, 50 mM K-glutamate, 10 mM Mg-acetate, 25 C; 10 nM labeled oligo, SSB concentrations as tetramers.

Drawing on paper PMC12143593, this text covers Kd for 4 substances.

Sequence of RecQ helicase (P15043 whole entry): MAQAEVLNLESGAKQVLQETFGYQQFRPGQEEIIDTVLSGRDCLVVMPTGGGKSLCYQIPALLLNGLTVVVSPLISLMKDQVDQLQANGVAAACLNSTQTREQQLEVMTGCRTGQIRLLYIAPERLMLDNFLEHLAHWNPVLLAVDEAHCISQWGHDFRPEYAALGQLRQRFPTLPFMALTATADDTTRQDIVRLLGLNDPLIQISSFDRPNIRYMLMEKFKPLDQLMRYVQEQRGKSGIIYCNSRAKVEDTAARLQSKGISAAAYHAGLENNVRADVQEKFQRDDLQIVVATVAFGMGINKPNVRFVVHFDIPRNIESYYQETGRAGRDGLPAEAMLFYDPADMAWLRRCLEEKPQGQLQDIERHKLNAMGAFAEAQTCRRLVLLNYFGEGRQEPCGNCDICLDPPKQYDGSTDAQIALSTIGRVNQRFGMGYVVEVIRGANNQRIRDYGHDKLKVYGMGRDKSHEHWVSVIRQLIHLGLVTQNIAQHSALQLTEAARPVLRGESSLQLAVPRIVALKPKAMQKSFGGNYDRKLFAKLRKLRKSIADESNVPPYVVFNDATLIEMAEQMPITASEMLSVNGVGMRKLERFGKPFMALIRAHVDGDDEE

“TTTTTTTTTTTTTTTTTTTTTTTTTTTTTTTTTTTTTTTTTTTTTTTTTTTTTTTTTTTTTTTTTTTTTTTTTTTTTTT [dT79]”: the Kd in [1] (n = 2.3) and in [2] was under 10 nM in each case.
Regarding “EcSSB GG construct (entire IDL except the CTP eliminated) (from UniProt P0AGE0 1-113) (natural protein)”, the dissociation constant Kd – broadly, the equilibrium constant for the complex coming apart – in [3] was 97 nM.
Turning to “EPE chimeric construct (EcSSB OB domain, IDL of Plasmodium falciparum SSB, EcSSB CTP) (from UniProt P0AGE0;Q8I415)”, the Kd is under 10 nM with RecQ helicase and 57 nM in series [3].
For ssDNA36, the Kd in series [4] came to 16 nM; in series [5], 89 nM; in series [6] it was 32 nM; in [7], 21 nM; in [8], 46 nM; in series [1] (n = 2.1), 96 nM. In [2], this substance had a Kd of 84 nM.
